We go through eleven molecules from US20160145322A1 (CRUCELL HOLLAND B V, published 2016).

Assay [1] concerns the target T1, Sym-1789 (RSV-G type B central region peptide 145-184) (Respiratory syncytial virus type B, N-terminal biotin).
T1 construct: Synthetic peptide, C-terminally truncated against Sym-1788
T1 peptide: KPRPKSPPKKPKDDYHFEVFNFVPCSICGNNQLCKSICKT
As to the kind of experiment: ELISA, biotinylated peptide on avidin plate. (In general: ELISA stands for enzyme-linked immunosorbent assay.)

In assay [2] the target is T2, Sym-1705 (RSV-G type A central region peptide 145-201) (Respiratory syncytial virus type A, not fully specified; N-terminal biotin).
T2 construct: Synthetic peptide
T2 peptide: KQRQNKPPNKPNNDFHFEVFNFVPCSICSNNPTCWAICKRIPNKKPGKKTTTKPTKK
As to the kind of experiment: ELISA, biotinylated peptide on avidin plate.

Assay [3] has as its target T3, Sym-1788 (RSV-G type B central region peptide 145-201) (Respiratory syncytial virus type B, N-terminal biotin).
T3 construct: Synthetic peptide
T3 peptide: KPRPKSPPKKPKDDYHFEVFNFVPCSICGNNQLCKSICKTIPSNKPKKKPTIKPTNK
As to the kind of experiment: ELISA, biotinylated peptide on avidin plate.

For assay [4], the target named is T4, Sym-1706 (RSV G central conserved domain (CCD) peptide, type A 145-184) (Respiratory syncytial virus type A, N-terminal biotin).
T4 construct: Synthetic peptide, C-terminally truncated against Sym-1705
T4 peptide: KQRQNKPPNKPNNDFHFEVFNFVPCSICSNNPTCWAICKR
Put plainly: ELISA, biotinylated peptide on avidin plate.

Assay [5] addresses T5, Recombinant RSV attachment protein (G protein) corresponding to RSV B/B1 (Respiratory syncytial virus B/B1, UniProt O36633 65-299).
T5 construct: also called RSV Gb; Gb
T5 sequence: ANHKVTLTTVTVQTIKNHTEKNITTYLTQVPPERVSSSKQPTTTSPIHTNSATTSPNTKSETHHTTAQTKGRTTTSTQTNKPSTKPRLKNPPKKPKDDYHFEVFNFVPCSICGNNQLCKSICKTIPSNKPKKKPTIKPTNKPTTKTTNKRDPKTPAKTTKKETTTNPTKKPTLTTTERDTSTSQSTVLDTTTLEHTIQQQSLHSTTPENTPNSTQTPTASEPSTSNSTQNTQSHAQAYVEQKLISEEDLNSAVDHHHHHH
Put plainly: ELISA, coated recombinant protein.

Assay [6] addresses G protein of RSV B/18537 (ATCC Cat. No. VR-1580), on virus (Respiratory syncytial virus B/18537). As to the kind of experiment: cell-based or functional assay.
In assay [7] the target is T6, G protein of RSV A/Long (ATCC Cat. No. VR-26), on virus (Respiratory syncytial virus A/Long, UniProt P20895 1-298).
T6 sequence (looked up): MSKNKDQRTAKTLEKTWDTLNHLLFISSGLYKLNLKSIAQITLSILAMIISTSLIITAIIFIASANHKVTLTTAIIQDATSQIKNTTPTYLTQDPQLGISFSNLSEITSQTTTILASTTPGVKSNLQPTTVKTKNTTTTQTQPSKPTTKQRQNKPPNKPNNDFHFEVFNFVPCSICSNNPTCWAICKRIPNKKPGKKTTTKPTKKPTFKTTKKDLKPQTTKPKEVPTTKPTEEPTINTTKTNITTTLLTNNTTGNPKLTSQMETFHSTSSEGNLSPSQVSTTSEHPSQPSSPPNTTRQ
As to the kind of experiment: cell-based or functional assay.

Assay [8] concerns the target T2, Sym-1705 (RSV-G type A central region …). Put plainly: ELISA, antibody titrated on biotinylated peptide on avidin plate.
Assay [9] addresses T4, Sym-1706 (RSV G central conserved …). The description is as above.
Assay [10] deals with T2, Sym-1705 (RSV-G type A central region …). Put plainly: Octet Red384, streptavidin tips with biotinylated peptide. For orientation: In BLI a coated tip is dipped into the sample, and binding shifts an interference pattern.
The target of assay [11] is T4, Sym-1706 (RSV G central conserved …). The assay is described as above.

B1: CB028.1 (antibody, V domains shown)
VH: QVQLVQSGAEVKKPGASVQVSCKTSGYTFSSYGISWVRQAPGQGPEWMGWISTHIGTTNYAQKLQGRVTMTTDTSTTTAYMELRSLRSDDTAVYYCARDLAKWYCSGDTCFCSGGRCYSDHWGQGTLVTVSS
VL: DIQMTQSPSSLSASVGDRVTITCRASQSINDCLNWYQQKPGQAPKLLISAASNLQSGVPSRFSGSGSETDFTLTISSLQPEDFAAYYCQQSFSTPLTFGGGTKVEIK
notes: Tested as human IgG from the pCP9-kappa vector
For B1, the binding result in assay [1], in [2], in assay [3], in [4] and in [5] was “binds” throughout. Moreover, the “Neutralization IC50 (ng/mL), plaque reduction assay, RSV B/18537” value in assay [6] was found to be 16.3 ng/mL.

B2: CB076.2L (antibody, V domains shown)
VH: QVQLVQSGAEVKKPGSSVKVSCKTSGDTFSNYVVSWVRQAPGQGLEWMGGIIPMFGTTNYAQRFQGRVTISADESTSTAYMEMSSLKSEDTAVYYCARDRYYEVRAGGKVLNTYYYMDVWGKGTTVTVSS
VL: SSELTQDPAVSVALGHTVRITCQGDSLRSYYTNWYQQKPGQAPVLVIFGEDNRPSGIPDRFSGSSSGDTASLTITGTQAEDEADYYCNSRDSSGNLWVFGGGTKLTVL
notes: Tested as human IgG from the pCP9-lambda vector
As for B2, the binding result in assay [1], in [2] and in assay [4] was “binds” in each case. The “Neutralization IC50 (ng/mL), plaque reduction assay, RSV B/18537” value in assay [6] worked out at 5.6 ng/mL.

B3: CB079.1 (antibody, V domains shown)
VH: EVQLVESGGDLVQPGGSLRLSCSASGFVFTSYSFHWVRQAPGKGLEYVSSVSADGGSTYYADSVRGRFLISRDNSKNTLSLQMSSLRPDDTALYYCVPQPSLLWFGDLRSWGQGTLVTVSS
VL: DIVMTQSPLSLPVTPGEPASISCRSSQSLLHSNGYNYLDWYLQKPGQSPQLLIYLSSNRASGVPDRFSGSGSGTDFTLKISRVEAEDIGIYYCMQSLQTLTFGQGTRLEIK
notes: as for B1
For the molecule B3, the binding result in [1], in [2], in assay [3], in [4] and in assay [5] was “binds” in each case. The “Neutralization IC50 (ng/mL), plaque reduction assay, RSV B/18537” value in [6] came to 4.4 ng/mL.

B4: CB071.1L (antibody, V domains shown)
VH: QVQLVQSGAEVKKPGSSVRVSCKASGGTFSRYVITWVRQAPGQGLEWMGGSIPIIDTSTYAQKFQDRVTITADKSTSTVYLELSSLRPEDTAIYYCAKVFFFSNSSGPPTEGPAFDVWGQGTMVTVSS
VL: SYELTQPPSVSVSPGQTASITCSGHELGDKYVSWYQQKPGQSPVLLIYQDTNRPAGIPERFSGSNSGSTAFLTISATQAMDEADYYCQAWDNSHVVFGGGTKLTVL
notes: as for B2
Consider B4, for which the binding result in assay [1], in assay [2] and in assay [4] was “binds” throughout. For the same molecule, the “Neutralization IC50 (ng/mL), plaque reduction assay, RSV B/18537” value in assay [6] was determined as 5.4 ng/mL.

B5: CB065.1 (antibody, V domains shown)
VH: QVQLVESGGGVVQPGRSLRLSCAASGFTFSNYGMHWVRQAPGKGLEWVTIISYDESTTLYADSVKGRFTISRDNSKNTVYLQMNSLRPEDTAVYYCARDHFDPSGYFWYFDLWGRGTLVTVSS
VL: DIVMTQSPLSLSVTPGQPASISCKSSQSLLQRDGKTYLYWYLQKPGQSPQLLIYEVSSRFSGVPDRFSGSGSGTDFTLKISRVEAEDVGVYYCMQGIRLPRTFGQGTKVEIK
notes: as for B1
In the case of B5, the binding result in assay [1], in assay [2], in [3], in assay [4] and in [5] was “binds” throughout. Moreover, the “Neutralization IC50 (ng/mL), plaque reduction assay, RSV B/18537” value in assay [6] came out at 5.1 ng/mL.

B6: CB017.5L (antibody, V domains shown)
VH: QVQLVESGGGVVQPGRSLRLSCSASGFTFSVYAMHWVRQAPGQGLEWVAIIWYDGSNKYYADSVKGRFTISRDNSKETLYLQMNSLRVEDTAVYYCARDPIVGHTRDGLDVWGQGTTVTVSS
VL: SYELTQPPSVSVSPGQTARVTCSGDAMAEQYTYWYQQKPGQAPVLIIFKDTERPSGIPERFSGSSSGTTVTLTISGVQTEDEADYYCQSTDSSGTSWVFGGGTKLTVL
notes: as for B2
In the case of B6, in assay [7], the “Neutralization IC50, plaque reduction assay, RSV A/Long” value was 3.5 ng/mL. For the same molecule, the IC50 in assay [8] and in assay [9] was roughly 20 ng/mL in each case. For the same molecule, the “Neutralization IC50 (ng/mL), plaque reduction assay, RSV B/18537” value in assay [6] came out at 3.8 ng/mL. Besides, the “Binding (Octet) [RU]” value in assay [10] is 3.17 RU; in assay [11], -0.02 RU.

B7: CB017.3L (antibody, V domains shown)
VH: QVQLVESGGGVVQPGGSLRLSCEASGFMFSVYAIHWVRQAPGKGLEWVAVIWHDGSNKYYADSVKGRFTISRDNSKDTMYLQMKTLRVDDTAVYYCARDPIVGSKTDGMDVWGQGTTVTVSS
VL: SYELTQPPSVSVSPGQTARITCSGDALADQYAYWYQQKPGQAPVMVIFKDNERPSGIPERFSGSSSGTTVTLTVSGVQSEDEADYYCQSVDSSGTYWMFGGGTKLTVL
notes: Tested as human IgG expressed in 293-F cells from the pCP9-lambda vector
In the case of B7, the binding result in assay [2] and in assay [4] was “binds” in each case. Besides, the “Neutralization IC50 (ng/mL), plaque reduction assay, RSV B/18537” value in assay [6] is 2 ng/mL.

B8: CB073.1L (antibody, V domains shown)
VH: QVQLVESGGGVVQPGRSLRLSCAASGFTFYNYAVHWVRQAPGKGLEWVAVISHDGVNKDYADSVKGRITLSRDNSKNTVYLQLNSLRPEDTAVYYCARDRSYYFGGSVFHLYFDYWGQGTLVTVSS
VL: QSVLTQPPSVSGAPGQRVIISCTGSSSNIGAGHDVHWYQQLPGTAPRLLIYANTNRPSGVPDRFSASKSGNSASLVITGLQAEDEADYFCQSHDSSLSGVLFGGGTKLTVL
notes: as for B2
B8: the binding result in assay [1], in [2] and in assay [4] was “binds” each time. Besides, the “Neutralization IC50 (ng/mL), plaque reduction assay, RSV B/18537” value in [6] turned out to be 2.9 ng/mL.

B9: CB047.1 (antibody, V domains shown)
VH: EVQLVESGGGLVQPGGSLRLSCAASGFSFSNYAMSWVRQAPGKGLEWVSDISGSGNSTNFADSVKGRFTISRDNSKNTLYLQMSSLRAEDTAVYYCAKFRVPTYCVNGICYQGLPGFDIWGQGTMVTVSS
VL: DIQMTQSPSSLSASVGDRVTITCQASQDISDYLNWYQQKPGKAPKLLIYDASNLETGVPSRFSASGSGTDFTFTISSLQPEDIATYYCQHYHNLPPLFGGGTKVEIK
notes: as for B1
Regarding B9, the binding result in [1], in assay [2] and in [4] was “binds” each time. In addition, in [6], the “Neutralization IC50 (ng/mL), plaque reduction assay, RSV B/18537” value turned out to be 4.7 ng/mL.

B10: CB047.2 (antibody, V domains shown)
VH: EVQLVESGGGLVQPGGSLRLSCAASGFNFSNYAMSWVRQAPGKGLEWVSDISSSGKTTNSADSVKGRFTISRDNSKNTLFLQMSSLRADDTAVYYCAKFRVPTYCVNGICYQGLPGFDIWGQGTMVTVSS
VL: DIQMTQSPSSLSASVGDRVTITCQASQDISDYLNWYQQKPGKAPKLLIYDASNLETGVPSRFSASGSGTDFTFTISSLQPEDFATYYCQHYHNLPPLFGGGTKVEIK
notes: as for B1
In the case of B10, the binding result in [1], in assay [2] and in assay [4] was “binds” throughout. In [6], the “Neutralization IC50 (ng/mL), plaque reduction assay, RSV B/18537” value is 8.9 ng/mL.

B11: CB072.1L (antibody, V domains shown)
VH: QLQLQESGPGLVKPSETLSLTCTVSGGSISSNIHYWAWIRQTPGKGLEWIGYMFYGGVAFYNPSLKSRVAISVDTSKNQFSLRLTSASAADTAVYYCARVLVASTNWFDPWGQGTLVTVSS
VL: SYVLTQPPSVSVAPGGTARITCGGDNIGTKGVHWYQQKPGQAPVLVMYYNSDRPTGVPERFSGSNSGNTATLTISRLEAGDEADYYCHVWDSSGSDHVEVFGGGTKLTVL
notes: Tested as human IgG from the pCP9-lambda vector; also called CB072.IL
In the case of B11, the binding result in assay [1], in assay [2] and in assay [4] was “binds” throughout. Also, the “Neutralization IC50 (ng/mL), plaque reduction assay, RSV B/18537” value in assay [6] was determined as 2.7 ng/mL.

For orientation: IC50 means the concentration needed to halve the response being measured. Read a low IC50 as greater potency.
